Assay results taken from paper PMC4951027.

Legend:
[1] = target: Fn N-terminal domain fragment (Fn-NTD) (human); test: SPR; settings: domain or fragment
[2] = target: ecto-domain of integrin α5β1-Fc fusion protein; test: SPR

Fn N-terminal domain fragment (Fn-NTD) (human), sequence (P02751 32-290): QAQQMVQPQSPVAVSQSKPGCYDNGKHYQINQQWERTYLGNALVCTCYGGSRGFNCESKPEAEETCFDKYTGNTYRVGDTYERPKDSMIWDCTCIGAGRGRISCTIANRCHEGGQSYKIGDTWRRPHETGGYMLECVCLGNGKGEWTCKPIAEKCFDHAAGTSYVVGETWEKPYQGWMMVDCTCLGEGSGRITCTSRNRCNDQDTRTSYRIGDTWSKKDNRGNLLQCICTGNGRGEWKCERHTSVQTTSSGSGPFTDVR

Substance | Kd [1] [µM] | Kd [2] [µM] | ka1 (first step, bivalent analyte model) [2] [M⁻¹ s⁻¹] | ka2 (second step, bivalent analyte model) [2] [RU^-1s^-1] | kd1 (first step, bivalent analyte model) [2] [s⁻¹] | kd2 (second step, bivalent analyte model) [2] [s⁻¹]
GST-FnBPA-3 | 10 |  |  |  |  | 
Fn + BBK32 (BBK32-bound Fn) (from UniProt O50835 21-205) (complex) |  | 0.17 | 75000 | 8e-06 | 0.012 | 0.001
